# Data as given in US20090110678A1 (Eli Lilly, published 2009).
# B1: PDGF-BB (ligand, UniProt P01127 82-190, looked up)
# chain: SLGSLTIAEPAMIAECKTRTEVFEISRRLIDRTNANFLVWPPCVEVQRCSGCCNNRNVQCRPTQVQLRPVQVRKIEIVRKKPIFKKATVTLEDHLACKCETVAAARPVT
# modifications: 125I label in the blocking assay
# B2: IMC-3G3, human anti-PDGFRα monoclonal antibody (antibody, human IgG1, V domains shown)
# VH: QLQLQESGPGLVKPSETLSLTCTVSGGSINSSSYYWGWLRQSPGKGLEWIGSFFYTGSTYYNPSLRSRLTISVDTSKNQFSLMLSSVTAADTAVYYCARQSTYYYGSGNYYGWFDRWDQGTLVTVSS
# VL: EIVLTQSPATLSLSPGERATLSCRASQSVSSYLAWYQQKPGQAPRLLIYDASNRATGIPARFSGSGSGTDFTLTISSLEPEDFAVYYCQQRSNWPPAFGQGTKVEIK
# notes: also called EMC-3G3; anti-PDGFRα antibody
# Tests used:
# [1] = target: T1, PDGFRα expressed on cells (PAE Rα, PC3-ML, SKLMS-1, U118) (human, UniProt P16234 24-1089); test: cell-based or functional assay
# [2] = target: T2, Human PDGFRα extracellular domain (ECD) (human, UniProt P16234 24-528); test: SPR, BIAcore 3000, PDGFRα ECD immobilized, antibody injected
# T2 construct: extracellular domain; Bought reagent; also called PDGFRa ECD; PDGFRα ECD
# Experimental: (§1) The kinetics of antibody binding to PDGFRα was measured using a BIAcore 3000 instrument (BIAcore, Inc., Piscataway, N.J.). PDGFRα ECD was immobilized onto a sensor chip and antibody was injected at various concentrations. Sensograms were obtained at each concentration and evaluated using the BIA Evaluation 2.0 program to determine the rate constants. The affinity constant, Kd, was calculated from the ratio of rate constants Koff/Kₒₙ.
# [3] = target: T2, Human PDGFRα extracellular domain (ECD); test: solid-phase blocking of iodinated PDGF binding to immobilized PDGFRα ECD; the table does not name the ligand, [125I]PDGF-AA by the legend of FIG. 13B; solid-phase PDGF blocking; ligand not named in Table 6
# [4] = target: T2, Human PDGFRα extracellular domain (ECD); test: direct binding ELISA on immobilized PDGFRα ECD (ED50, 50% maximum binding)
# [5] = target: T2, Human PDGFRα extracellular domain (ECD); test: SPR, BIAcore 3000, PDGFRα ECD immobilized, antibody injected; Koff/Kon
# Experimental: as §1
# [6] = target: T2, Human PDGFRα extracellular domain (ECD); test: solid-phase blocking of [125I]PDGF-BB binding to immobilized PDGFRα ECD; [125I]PDGF-BB as ligand, solid phase
# [7] = target: T2, Human PDGFRα extracellular domain (ECD); test: solid-phase blocking assay: inhibition of [125I]PDGF-AA binding to immobilized PDGFRα ECD
# [8] = target: T1, PDGFRα expressed on cells (PAE Rα, …); test: cell-based PDGF blocking assay (Heldin et al. 1988); cells and PDGF isoform not named; cell-based PDGF blocking; cells and isoform not named
# T1 sequence (P16234 24-1089): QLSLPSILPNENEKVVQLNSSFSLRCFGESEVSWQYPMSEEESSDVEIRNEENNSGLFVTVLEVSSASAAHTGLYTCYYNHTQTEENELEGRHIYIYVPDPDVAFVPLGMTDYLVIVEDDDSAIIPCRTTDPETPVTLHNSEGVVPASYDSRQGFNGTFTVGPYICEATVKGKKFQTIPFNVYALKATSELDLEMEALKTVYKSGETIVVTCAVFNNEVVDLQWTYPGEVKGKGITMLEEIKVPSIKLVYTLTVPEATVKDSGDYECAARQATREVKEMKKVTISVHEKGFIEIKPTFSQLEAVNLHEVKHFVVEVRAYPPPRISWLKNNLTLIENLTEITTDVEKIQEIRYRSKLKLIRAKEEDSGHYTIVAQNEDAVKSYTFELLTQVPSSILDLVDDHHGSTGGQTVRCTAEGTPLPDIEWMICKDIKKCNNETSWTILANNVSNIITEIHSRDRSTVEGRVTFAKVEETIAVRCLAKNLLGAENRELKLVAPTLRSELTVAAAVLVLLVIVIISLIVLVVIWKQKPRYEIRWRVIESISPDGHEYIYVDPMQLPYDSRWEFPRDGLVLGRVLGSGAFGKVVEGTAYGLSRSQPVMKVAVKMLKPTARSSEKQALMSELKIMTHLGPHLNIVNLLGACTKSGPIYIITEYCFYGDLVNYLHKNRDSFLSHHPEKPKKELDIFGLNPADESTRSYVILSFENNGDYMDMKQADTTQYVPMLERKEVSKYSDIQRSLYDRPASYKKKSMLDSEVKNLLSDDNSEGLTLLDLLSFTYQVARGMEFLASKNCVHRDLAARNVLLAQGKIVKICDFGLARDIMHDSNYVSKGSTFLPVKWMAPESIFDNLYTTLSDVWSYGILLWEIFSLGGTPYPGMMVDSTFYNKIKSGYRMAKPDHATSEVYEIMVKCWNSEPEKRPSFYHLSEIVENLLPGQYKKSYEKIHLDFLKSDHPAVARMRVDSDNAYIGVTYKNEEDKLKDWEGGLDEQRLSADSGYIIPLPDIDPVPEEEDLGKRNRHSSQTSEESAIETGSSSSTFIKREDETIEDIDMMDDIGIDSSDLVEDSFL
# T2 sequence (P16234 24-528): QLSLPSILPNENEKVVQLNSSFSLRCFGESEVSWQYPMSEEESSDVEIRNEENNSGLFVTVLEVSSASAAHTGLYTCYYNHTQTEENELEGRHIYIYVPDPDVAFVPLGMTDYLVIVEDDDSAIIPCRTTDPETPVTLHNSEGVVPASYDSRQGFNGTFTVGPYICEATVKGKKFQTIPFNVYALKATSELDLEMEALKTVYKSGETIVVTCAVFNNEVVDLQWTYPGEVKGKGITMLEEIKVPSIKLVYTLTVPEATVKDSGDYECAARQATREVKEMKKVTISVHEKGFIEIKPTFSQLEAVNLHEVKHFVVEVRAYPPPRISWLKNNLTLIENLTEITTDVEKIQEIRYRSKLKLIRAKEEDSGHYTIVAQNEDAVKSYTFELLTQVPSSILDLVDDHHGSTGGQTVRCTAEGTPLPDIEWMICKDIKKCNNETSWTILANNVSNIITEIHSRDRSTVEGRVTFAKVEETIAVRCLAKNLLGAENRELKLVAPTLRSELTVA
Binder,PDGFRα tyrosine phosphorylation in PAE Rα cells [1],koff [2] [s⁻¹],IC50 [3] [nM],EC50 [4] [nM],Kd [5] [nM],IC50 [6] [nM],IC50 (read off the curve) [7] [nM],IC50 [8] [nM],"EC50, inhibition of PDGF-AA-induced thymidine incorporation in U118 cells [1] [nM]"
B1,~5 fold (at 3 nmol/L),–,–,–,–,–,–,–,–
B2,–,4.7e-05,0.24,0.06,0.04,0.43,~0.3,0.58,3.4
